Experimental data published in paper PMC5404317.
Residue numbers refer to the chain shown, from its start. Names and notes keep the numbering of the source.

B1: PINK1-V5 WT (V5-6xHis-tagged PINK1 wild type), Q9BXM7 L347P (protein)
chain: AARLQRQFVVRAWGCAGPCGRAVFLAFGLGLGLIEEKQAESRRAVSACQEIQAIFTQKSKPGPDPLDTRRLQGFRLEEYLIGQSIGKGCSAAVYEATMPTLPQNLEVTKSTGLLPGRGPGTSAPGEGQERAPGAPAFPLAIKMMWNISAGSSSEAILNTMSQELVPASRVALAGEYGAVTYRKSKRGPKQLAPHPNIIRVLRAFTSSVPLLPGALVDYPDVLPSRLHPEGLGHGRTLFLVMKNYPCTLRQYLCVNTPSPRLAAMMLLQLPEGVDHLVQQGIAHRDLKSDNILVELDPDGCPWLVIADFGCCLADESIGLQLPFSSWYVDRGGNGCLMAPEVSTARPGPRAVIDYSKADAWAVGAIAYEIFGLVNPFYGQGKAHLESRSYQEAQLPALPESVPPDVRQLVRALLQREASKRPSARVAANVLHLSLWGEHILALKNLKLDKMVGWLLQQSAATLLANRLTEKCCVETKMKMLFLANLECETLCQAALLLCSWRAAL
B2: PINK1-V5 WT (V5-6xHis-tagged PINK1 wild type), Q9BXM7 I368N (protein)
chain: B1 chain with P270L, I291N

Molecular target: HSP90, P07900
Test: co-immunoprecipitation (V5 agarose) with western blot quantification
Details: chain shown with the change, HeLa cells, read off a plot
[1] = 10 μM CCCP for 2 h, parent: est. 0.82
[2] = untreated (no CCCP), parent: est. 1.0

Row | Binder | response (HSP90/V5 ratio) [1] | response (HSP90/V5 ratio) [2]
1 | B1 | 0.42 | 0.54
2 | B2 | 0.62 | 0.6
